Experimental data taken from article PMC10227085, “OsMADS17 simultaneously increases grain number and grain weight in rice”.

B1: EMSA-probe-OsMADS17 (dsDNA)
DNA 1: TCTCTGCTCCTTTATATGGGGTTACA
DNA 2: TGTAACCCCATATAAAGGAGCAGAGA
B2: EMSA-probe-OsAP2-39 (dsDNA)
DNA 1: AAACCTTACCAAATTTTGGTAAAGTTGCCAAAAAAATGGCTATATTTA
DNA 2: TAAATATAGCCATTTTTTTGGCAACTTTACCAAAATTTGGTAAGGTTT

What was measured:
[1] = target: MBP-OsMADS1 (Oryza sativa, UniProt Q10PZ9 1-257); assay: EMSA; cold probe competition at 20x and 200x; 20 uL with 2 uL biotin probe, 5 ug protein, 2 uL 10x binding buffer (composition not given), 1 uL 50% glycerol; 30 min at room temperature; 6% native PAGE, 0.5x TBE; conditions: protein: recombinant; tags: N-terminal MBP; chain copies: 2; blunt
[2] = target: MBP-OsMADS17 (Oryza sativa, UniProt Q7XUN2 1-249); assay: as above; conditions: protein: recombinant; tags: N-terminal MBP; chain copies: 2; blunt
Sequence of MBP-OsMADS17 (Q7XUN2 whole entry): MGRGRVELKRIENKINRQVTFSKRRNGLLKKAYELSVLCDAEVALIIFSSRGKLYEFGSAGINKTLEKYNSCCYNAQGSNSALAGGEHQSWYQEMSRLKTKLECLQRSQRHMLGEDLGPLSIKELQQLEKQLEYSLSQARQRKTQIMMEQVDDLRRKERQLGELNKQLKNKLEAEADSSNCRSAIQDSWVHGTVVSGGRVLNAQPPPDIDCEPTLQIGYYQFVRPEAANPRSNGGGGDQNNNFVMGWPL

Sequence of MBP-OsMADS1 (Q10PZ9 whole entry): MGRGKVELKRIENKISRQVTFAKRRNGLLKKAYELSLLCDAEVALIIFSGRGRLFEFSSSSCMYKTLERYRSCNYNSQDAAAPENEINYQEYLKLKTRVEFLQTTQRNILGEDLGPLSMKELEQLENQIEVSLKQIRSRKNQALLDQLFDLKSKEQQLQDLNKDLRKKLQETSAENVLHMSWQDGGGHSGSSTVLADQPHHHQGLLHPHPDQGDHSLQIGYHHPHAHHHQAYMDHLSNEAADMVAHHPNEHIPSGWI

| Binder | binding result [1] | binding result [2] |
| --- | --- | --- |
| B1 | binds |  |
| B2 |  | binds |
